This note sets out measurements from patent US20080089892A1.

Broadly, the EC50 (read off the curve) is the concentration that produces a half-maximal response. By Kd is commonly meant the equilibrium constant for the complex coming apart. The low end stands for tighter binding, the high end for weaker binding.

Experiment [1] addresses biotin-labeled soluble FcRn (Fc neonatal receptor). The experiment in a line: ELISA, biotin-FcRn captured on Neutravidin plate, single-point IgG, pH 6.0.
The target is the same in experiment [2]. In words: ELISA, biotin-FcRn captured on Neutravidin plate, single-point IgG, pH 7.0. A general note: In an ELISA, binding on a coated surface is turned into a signal by an enzyme label.
Experiment [3] concerns the target human Fc gamma RI receptor (CD64), extracellular portion with C-terminal 6-his tag. In words: ELISA: plate-coated human FcγRI (CD64) extracellular portion with 6-his tag; IgG titrated; bound IgG detected with anti-human kappa alkaline phosphatase conjugate, A560.
For experiment [4], the target named is Human FcγRIIIa(158F) soluble extracellular domain with engineered 6-histidine tag (human) (UniProt P08637). The experiment in a line: KinExA, 7.5 nM IgG equilibrated with titrated soluble FcγRIIIa(158F), free IgG captured on receptor beads. For orientation: Kinetic exclusion samples the free partner from a solution-phase mixture.
UniProt P08637, sequence (P08637 other isoform, or with tags, fused parts or gaps): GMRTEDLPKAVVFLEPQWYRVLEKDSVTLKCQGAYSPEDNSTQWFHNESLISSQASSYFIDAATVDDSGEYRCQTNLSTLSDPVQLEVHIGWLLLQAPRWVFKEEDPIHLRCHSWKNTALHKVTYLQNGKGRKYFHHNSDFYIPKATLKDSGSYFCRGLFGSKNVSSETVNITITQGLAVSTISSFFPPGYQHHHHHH

human Fc gamma RI receptor (CD64), extracellular portion with C-terminal 6-his tag, sequence (chain, as listed by the source limits assumed): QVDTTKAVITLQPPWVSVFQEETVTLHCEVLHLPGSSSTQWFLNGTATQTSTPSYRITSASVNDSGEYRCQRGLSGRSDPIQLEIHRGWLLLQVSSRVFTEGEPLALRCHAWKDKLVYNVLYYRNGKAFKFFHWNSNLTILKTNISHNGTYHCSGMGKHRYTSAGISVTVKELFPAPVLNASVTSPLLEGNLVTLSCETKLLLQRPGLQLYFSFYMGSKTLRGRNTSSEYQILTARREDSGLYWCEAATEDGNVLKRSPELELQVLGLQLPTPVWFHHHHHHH

Consider “anti-CD20 IgG Fc variant A330K (antibody)”, for which the FcRn 6.0 (binding relative to parental) (% of parental (parental = 100)) in experiment [1] came to 104. Moreover, in experiment [2], the FcRn 7.0 (binding relative to parental) (% of parental (parental = 100)) came to 99.

Regarding “anti-CD20 IgG Fc variant A330R (antibody)”, the FcRn 6.0 (binding relative to parental) (% of parental (parental = 100)) in experiment [1] turned out to be 77. Besides, the FcRn 7.0 (binding relative to parental) (% of parental (parental = 100)) in experiment [2] is 101.

In the case of “anti-CD20 IgG Fc variant A339T (antibody)”, the FcRn 6.0 (binding relative to parental) (% of parental (parental = 100)) in experiment [1] was found to be 115. In addition, in experiment [2], the FcRn 7.0 (binding relative to parental) (% of parental (parental = 100)) is 109.

As for “anti-CD20 IgG Fc variant A378D (antibody)”, in experiment [1], the FcRn 6.0 (binding relative to parental) (% of parental (parental = 100)) came out at 122. The FcRn 7.0 (binding relative to parental) (% of parental (parental = 100)) in experiment [2] was found to be 93.

In the case of “anti-CD20 IgG Fc variant D280A (antibody)”, in experiment [1], the FcRn 6.0 (binding relative to parental) (% of parental (parental = 100)) is 91. Moreover, in experiment [2], the FcRn 7.0 (binding relative to parental) (% of parental (parental = 100)) came to 84.

For “anti-CD20 IgG Fc variant D280K (antibody)”, in experiment [1], the FcRn 6.0 (binding relative to parental) (% of parental (parental = 100)) worked out at 103. The FcRn 7.0 (binding relative to parental) (% of parental (parental = 100)) in experiment [2] amounted to 93.

On to “anti-CD20 IgG Fc variant H268D (antibody)”, for which the FcRn 6.0 (binding relative to parental) (% of parental (parental = 100)) in experiment [1] came to 87. The FcRn 7.0 (binding relative to parental) (% of parental (parental = 100)) in experiment [2] came to 84.

For the substance “anti-CD20 IgG Fc variant H268E (antibody)”, the FcRn 6.0 (binding relative to parental) (% of parental (parental = 100)) in experiment [1] amounted to 90. In addition, the FcRn 7.0 (binding relative to parental) (% of parental (parental = 100)) in experiment [2] was 81.

Take “anti-CD20 IgG Fc variant I332D (antibody)”: the FcRn 6.0 (binding relative to parental) (% of parental (parental = 100)) in experiment [1] is 91. In addition, the FcRn 7.0 (binding relative to parental) (% of parental (parental = 100)) in experiment [2] stood at 102.

With “anti-CD20 IgG Fc variant I332E (AME-133: variable region 33 with the I332E Fc variant sequence) (antibody)”, in experiment [1], the FcRn 6.0 (binding relative to parental) (% of parental (parental = 100)) was 99. For the same substance, the FcRn 7.0 (binding relative to parental) (% of parental (parental = 100)) in experiment [2] was found to be 97. The same substance returned an EC50 (read off the curve) in experiment [3] of 2 µg/mL. Besides, the Kd in experiment [4] was found to be 52 nM.

Consider “anti-CD20 IgG Fc variant I332K (antibody)”, for which the FcRn 6.0 (binding relative to parental) (% of parental (parental = 100)) in experiment [1] was 109. Also, the FcRn 7.0 (binding relative to parental) (% of parental (parental = 100)) in experiment [2] came to 97.

For the substance “anti-CD20 IgG Fc variant I332R (antibody)”, the FcRn 6.0 (binding relative to parental) (% of parental (parental = 100)) in experiment [1] worked out at 97. Further, the FcRn 7.0 (binding relative to parental) (% of parental (parental = 100)) in experiment [2] amounted to 92.

With “anti-CD20 IgG Fc variant L251F (antibody)”, the FcRn 6.0 (binding relative to parental) (% of parental (parental = 100)) in experiment [1] is 102. For the same substance, in experiment [2], the FcRn 7.0 (binding relative to parental) (% of parental (parental = 100)) was determined as 100.

Regarding “anti-CD20 IgG Fc variant P247H (antibody)”, in experiment [1], the FcRn 6.0 (binding relative to parental) (% of parental (parental = 100)) is 79. The FcRn 7.0 (binding relative to parental) (% of parental (parental = 100)) in experiment [2] is 73.

For “anti-CD20 IgG Fc variant P247I (antibody)”, the FcRn 6.0 (binding relative to parental) (% of parental (parental = 100)) in experiment [1] turned out to be 89. Moreover, the FcRn 7.0 (binding relative to parental) (% of parental (parental = 100)) in experiment [2] amounted to 74.

In the case of “anti-CD20 IgG Fc variant P247L (antibody)”, in experiment [1], the FcRn 6.0 (binding relative to parental) (% of parental (parental = 100)) came to 92. In addition, the FcRn 7.0 (binding relative to parental) (% of parental (parental = 100)) in experiment [2] turned out to be 78.

On to “anti-CD20 IgG Fc variant S440Y (antibody)”, for which the FcRn 6.0 (binding relative to parental) (% of parental (parental = 100)) in experiment [1] is 106. In experiment [2], the FcRn 7.0 (binding relative to parental) (% of parental (parental = 100)) amounted to 102.

In the case of “anti-CD20 IgG Fc variant T256M (antibody)”, the FcRn 6.0 (binding relative to parental) (% of parental (parental = 100)) in experiment [1] was 72. In experiment [2], the FcRn 7.0 (binding relative to parental) (% of parental (parental = 100)) was found to be 82.

With “anti-CD20 IgG Fc variant T256P (antibody)”, the FcRn 6.0 (binding relative to parental) (% of parental (parental = 100)) in experiment [1] was determined as 132. The FcRn 7.0 (binding relative to parental) (% of parental (parental = 100)) in experiment [2] stood at 121.

In experiment [3], “anti-CD20 IgG combinatorial Fc variant (L256P, I332E) (antibody)” yielded an EC50 (read off the curve) of 1 µg/mL. In experiment [4], this substance yielded a Kd of 21 nM.

Consider “wild type (parental Fc) anti-CD20 IgG (antibody)”, for which the FcRn 6.0 (binding relative to parental) (% of parental (parental = 100)) in experiment [1] came to 100. Further, the FcRn 7.0 (binding relative to parental) (% of parental (parental = 100)) in experiment [2] was found to be 100. This substance gave a Kd in experiment [4] of 387 nM.
